System: FLAG-Atoh1
Assay: not given

| Substance | wild-type and K48 poly-ubiquitylated Atoh1 |
| --- | --- |
| Myc-Huwe1 C4341A | The resulting decrease in both wild-type and K48 poly-ubiquitylated Atoh1 |

Target: FLAG-HA-Atoh1 (UniProt Q92858)
Assay: not given

| Substance | poly-ubiquitylation of Atoh1 after Huwe1 knockdown (shRNA) |
| --- | --- |
| HECT, UBA and WWE domain containing 1 (Huwe1) protein | decreased poly-ubiquitylation was observed after Huwe1 knockdown |

Target: FLAG-HA-Atoh1 (UniProt Q92858)
Assay: MS of 450 kDa Coomassie band from FLAG-HA-Atoh1 IP

| Total peptide | Unique peptide | Substance |
| --- | --- | --- |
| 26 | 26 | AKAP9 (from UniProt Q99996 1-3907) |
| 23 | 21 | CEP350 (from UniProt Q5VT06 1-3117) |
| 13 | 12 | DMXL1 (from UniProt Q9Y485 1-3027) |
| 87 | 75 | DYNC1H1 (from UniProt Q14204 2-4646) |
| 12 | 10 | GOLGB1 (from UniProt Q14789 1-3259) |
| 279 | 122 | HECT, UBA and WWE domain containing 1 (Huwe1) protein, Q7Z6Z7 1-4374 |
| 36 | 34 | HERC2 (from UniProt O95714 1-4834) (enzyme) |
| 79 | 46 | KIF11 (from UniProt P52732 1-1056) |
| 51 | 50 | MACF1 (from UniProt Q9UPN3 1-7388) |
| 15 | 14 | MAP1A (from UniProt P78559 1-2803) |
| 133 | 78 | MAP1B (from UniProt P46821 2-2468) |
| 41 | 37 | MDN1 (from UniProt Q9NU22 1-5596) |
| 29 | 27 | MGA (from UniProt Q8IWI9 1-3065) |
| 51 | 47 | MYCBP2 (from UniProt O75592 1-4678) (enzyme) |
| 17 | 16 | PLEC (from UniProt Q15149 1-4684) |
| 161 | 112 | PRKDC (from UniProt P78527 1-4128) (enzyme) |
| 26 | 21 | PRRC2C (from UniProt Q9Y520 1-2896) |
| 32 | 30 | RNF213 (from UniProt Q63HN8 1-5207) (enzyme) |
| 12 | 12 | SACS (from UniProt Q9NZJ4 1-4579) |
| 22 | 20 | SON (from UniProt P18583 2-2426) |
| 53 | 38 | SRRM2 (from UniProt Q9UQ35 1-2752) |
| 12 | 12 | TRRAP (from UniProt Q9Y4A5 2-3859) |
| 31 | 26 | UBR5 (from UniProt O95071 2-2799) (enzyme) |
| 30 | 30 | UTRN (from UniProt P46939 1-3433) |

Target: FLAG-HA-Atoh1 (UniProt Q92858)
Assay: anti-HA IP of FLAG-HA-Atoh1 293T lysate, LC-MS/MS, ComPASS

| D^N Score | Z score | Substance |
| --- | --- | --- |
| 1 | 5.03 | AAMP (from UniProt Q13685 1-434) |
| 1.41 | 5.71 | ACOX1 (from UniProt Q15067 1-660) |
| 1 | 5.03 | AHSA1 (from UniProt O95433 1-338) |
| 1.41 | 5.71 | ATP2A1 (from UniProt O14983 1-1001) |
| 2 | 5.54 | BCKDHA (from UniProt P12694 46-445) |
| 1 | 5.03 | CCDC124 (from UniProt Q96CT7 1-223) |
| 2 | 5.54 | CPOX (from UniProt P36551 111-454) |
| 2.45 | 5.6 | CTPS2 (from UniProt Q9NRF8 1-586) |
| 1 | 5.16 | EIF2C1 (from UniProt Q9UL18 1-857) |
| 3.16 | 5.72 | EIF2C2 (from UniProt Q9UKV8 1-859) |
| 1 | 5.16 | EIF2C3 (from UniProt Q9H9G7 1-860) |
| 1.41 | 5.71 | ENAH (from UniProt Q8N8S7 1-591) |
| 1 | 5.16 | FHL3 (from UniProt Q13643 2-280) |
| 1.15 | 5.21 | FLNC (from UniProt Q14315 1-2725) |
| 2.45 | 5.71 | GFAP (from UniProt P14136 1-432) |
| 1.5 | 5.56 | HECT, UBA and WWE domain containing 1 (Huwe1) protein, Q7Z6Z7 1-4374 |
| 2 | 5.71 | MAPK3 (from UniProt P27361 2-379) (enzyme) |
| 2 | 5.71 | NT5DC2 (from UniProt Q9H857 1-520) |
| 1.41 | 5.71 | PDE4D (from UniProt Q08499 1-809) |

| D^N Score | Z score | Substance |
| --- | --- | --- |
| 1.41 | 5.71 | PDXK (from UniProt O00764 1-312) |
| 1.23 | 4.6 | PRDX4 (from UniProt Q13162 38-271) |
| 1.23 | 4.6 | PRPS1 (from UniProt P60891 2-318) |
| 1.23 | 5.24 | SEC23A (from UniProt Q15436 2-765) |
| 1 | 5.03 | SEC23B (from UniProt Q15437 2-767) |
| 1 | 3.92 | SERPINH1 (from UniProt P50454 19-418) |
| 1.41 | 5.71 | SLC3A2 (from UniProt P08195 2-529) |
| 1.41 | 5.71 | SRI (from UniProt P30626 1-198) |
| 3.16 | 5.57 | TCF3 (from UniProt P15923 1-654) |
| 2.45 | 5.71 | TCF12 (from UniProt Q99081 1-682) |
| 2 | 5.71 | TNRC6C (from UniProt Q9HCJ0 1-1936) |
| 1.39 | 2.88 | TUBA1C (from UniProt Q9BQE3 1-449) |
| 3 | 3.77 | TUBA4A (from UniProt P68366 1-448) |
| 2.58 | 4.36 | TUBB2B (from UniProt Q9BVA1 1-445) |
| 1.41 | 5.42 | USP11 (from UniProt P51784 1-963) (enzyme) |
| 2 | 5.54 | USP47 (from UniProt Q96K76 1-1375) (enzyme) |
| 1.41 | 5.71 | YARS2 (from UniProt Q9Y2Z4 17-477) |
| 1.58 | 5.48 | ZYX (from UniProt Q15942 2-572) |

| Substance | D^N Score | Z score |
| --- | --- | --- |
| NEK9 (from UniProt Q8TD19 2-979) (enzyme) | 2.83 | 5.54 |

Source: US20190203210A1
